Data reported in publication PMC7015237, “mTORC1 signalling is not essential for the maintenance of muscle mass and function in adult sedentary mice” (Journal of Cachexia, Sarcopenia and Muscle, 2019).

Molecular target: T1, eukaryotic translation initiation factor 4E (mouse (endogenous in gastrocnemius …, UniProt P63073 1-217))
T1 construct: eukaryotic translation initiation factor 4E (eIF4E), mouse, endogenous in gastrocnemius muscle; also called eIF4E; source: endogenous, mouse gastrocnemius muscle lysate (3 month iRAmKO and control mice)
Assay: pull-down; m7GTP-agarose beads on 400 ug gastrocnemius lysate of 3 month iRAmKO (raptor-depleted) and control mice, overnight at 4°C; lysis buffer 20 mM Hepes pH 7.4, 50 mM KCl, 0.2 mM EDTA, 0.5% Triton X-100; western blot for eIF4E and 4E-BP1; 4E-BP1 normalised to eIF4E
Conditions: partners not purified

T1 sequence (P63073 whole entry): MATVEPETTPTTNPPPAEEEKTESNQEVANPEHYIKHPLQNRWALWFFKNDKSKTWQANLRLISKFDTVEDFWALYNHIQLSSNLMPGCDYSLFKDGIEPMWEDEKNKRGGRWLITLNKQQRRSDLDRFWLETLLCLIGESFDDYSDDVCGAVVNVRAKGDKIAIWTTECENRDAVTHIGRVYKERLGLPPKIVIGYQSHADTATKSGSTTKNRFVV

B1: eukaryotic translation initiation factor 4E-binding protein 1 (natural protein, UniProt Q60876 1-117, looked up)
chain: MSAGSSCSQTPSRAIPTRRVALGDGVQLPPGDYSTTPGGTLFSTTPGGTRIIYDRKFLMECRNSPVAKTPPKDLPAIPGVTSPTSDEPPMQASQSQLPSSPEDKRAGGEESQFEMDI
notes: Phosphorylation of 4E-BP1 (S65) is lower in iRAmKO muscle than in controls; the phosphorylation state of the pulled-down protein was not determined; also called 4E-BP1; source: endogenous, mouse gastrocnemius muscle lysate (3 month iRAmKO and control mice)
Q: B1 was tested. Which “fold change of the ratio of 4E-BP1 to eIF4E in the m7GTP pulldown, iRAmKO against control mice” value did it give?
A: 2.5 fold
